Columns and labels:
[1] = molecular target: SOP1 gelatine extracted from blue whiting skin and bone
[2] = molecular target: SOP2 gelatine extracted from blue whiting skin and bone
[3] = molecular target: Angiotensin-converting enzyme-I (ACE-1)
[4] = molecular target: Renin
[5] = molecular target: Angiotensin-converting enzyme-I (ACE-1); remark: listed apart in the source

| % ACE-I inhibition at 1 mg/mL [3] | % ACE-1 inhibition at 1 mg/ml [5] | Substance | other results |
| --- | --- | --- | --- |
|  |  | Alcalase (EC number 3.4.21.62) (from UniProt P00780) (enzyme) | degree of hydrolysis (DH) after 4 h, pH-stat method [1]: 1.87%; degree of hydrolysis (DH) after 4 h, pH-stat method [2]: 2.54% |
| 28.9% |  | Blue whiting 3 KDa permeate (blood water fraction) (pool or library) | % Renin inhibition at 1 mg/mL [4]: 10.6% |
| 33.1% |  | Blue whiting 10 KDa permeate (blood water fraction) (pool or library) |  |
| 59.4% |  | Blue whiting retentate (blood water fraction) (pool or library) |  |
| 83.9% |  | Mackerel 3 KDa permeate (blood water fraction) (pool or library) | % Renin inhibition at 1 mg/mL [4]: 21% |
| 96.9% |  | Mackerel 10 KDa permeate (blood water fraction) (pool or library) |  |
| 95.4% |  | Mackerel retentate (blood water fraction) (pool or library) |  |
|  |  | Papain (EC number 3.4.22.2) (from UniProt P00784) (enzyme) | degree of hydrolysis (DH) after 4 h, pH-stat method [1]: 20.4%; degree of hydrolysis (DH) after 4 h, pH-stat method [2]: 19.4% |
|  | 26.8% | SOP1 gelatine alcalase hydrolysate (blue whiting skin and bone) (pool or library) |  |
|  | 73.1% | SOP1 gelatine papain hydrolysate (blue whiting skin and bone) (pool or library) |  |
|  | 25.1% | SOP2 gelatine alcalase hydrolysate (blue whiting skin and bone) (pool or library) |  |
|  | 71.1% | SOP2 gelatine papain hydrolysate (blue whiting skin and bone) (pool or library) |  |
|  | 84.2% | ≤3 KDa peptide fraction of the SOP1 gelatine alcalase hydrolysate (pool or library) |  |
|  | 80.5% | ≤3 KDa peptide fraction of the SOP1 gelatine papain hydrolysate (pool or library) |  |
|  | 87.1% | ≤3 KDa peptide fraction of the SOP2 gelatine alcalase hydrolysate (pool or library) |  |
|  | 84.5% | ≤3 KDa peptide fraction of the SOP2 gelatine papain hydrolysate (pool or library) |  |

— patent publication US20230389573A1
